Source: US20200283478A1 (Genentech, published 2020)
Bridge positions count the residues as written; N and C are the ends.

Legend:
His-tagged PCSK9Δhelix = target: T1, His-tagged PCSK9Δhelix (human, UniProt Q8NBP7 31-152; Q8NBP7 168-692); assay: TR-FRET competition (PCSK9Δhelix/Ab20 assay); competitor Ab20
T1 construct: Human PCSK9 M1-Q692 with an engineered TEV site, cut by TEV protease; new N-terminus of the catalytic domain is S-A168; also called His-PCSK9Δhelix; not shown: His tag

[1] = target: T2, His-tagged, full-length PCSK9 (human, UniProt Q8NBP7 31-692); assay: TR-FRET competition (PCSK9/EGF(A) assay); competitor EGF(A)-Fc;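 note: proximity signal from anti-His APC on PCSK9 paired with anti-Fc europium on the Fc ligand, read as normalized TR-FRET ratio across compound dilutions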
T2 construct: secreted PCSK9 is autocatalytically cleaved into prodomain and catalytic domain + CRD (from S153), which stay associated; also called His-PCSK9; proprotein convertase subtilisin/kexin type 9; not shown: His tag
T2 sequence (Q8NBP7 31-692 limits assumed): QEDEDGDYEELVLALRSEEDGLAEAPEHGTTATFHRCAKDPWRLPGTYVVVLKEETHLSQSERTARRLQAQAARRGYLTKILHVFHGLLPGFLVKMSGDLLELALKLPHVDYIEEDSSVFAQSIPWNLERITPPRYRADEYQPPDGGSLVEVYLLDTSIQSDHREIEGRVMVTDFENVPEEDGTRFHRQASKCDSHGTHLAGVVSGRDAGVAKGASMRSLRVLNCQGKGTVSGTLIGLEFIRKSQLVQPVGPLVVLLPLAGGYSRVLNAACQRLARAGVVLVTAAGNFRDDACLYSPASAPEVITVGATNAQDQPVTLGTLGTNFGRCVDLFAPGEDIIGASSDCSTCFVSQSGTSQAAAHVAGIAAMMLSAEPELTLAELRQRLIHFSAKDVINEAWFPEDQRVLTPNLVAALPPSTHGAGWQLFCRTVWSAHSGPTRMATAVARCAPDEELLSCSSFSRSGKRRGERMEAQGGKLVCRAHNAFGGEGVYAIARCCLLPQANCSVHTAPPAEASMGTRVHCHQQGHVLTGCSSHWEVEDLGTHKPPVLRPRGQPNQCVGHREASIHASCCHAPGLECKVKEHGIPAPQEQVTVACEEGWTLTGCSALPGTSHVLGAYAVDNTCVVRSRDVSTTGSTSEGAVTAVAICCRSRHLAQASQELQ

T1 sequence (Q8NBP7 31-152, stated change not applied, chain 1 of 2): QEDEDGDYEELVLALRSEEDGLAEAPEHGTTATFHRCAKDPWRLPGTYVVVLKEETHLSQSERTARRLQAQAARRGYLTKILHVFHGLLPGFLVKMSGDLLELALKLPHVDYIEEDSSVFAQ
T1 sequence (Q8NBP7 other isoform, or with tags, fused parts or gaps mutant, chain 2 of 2): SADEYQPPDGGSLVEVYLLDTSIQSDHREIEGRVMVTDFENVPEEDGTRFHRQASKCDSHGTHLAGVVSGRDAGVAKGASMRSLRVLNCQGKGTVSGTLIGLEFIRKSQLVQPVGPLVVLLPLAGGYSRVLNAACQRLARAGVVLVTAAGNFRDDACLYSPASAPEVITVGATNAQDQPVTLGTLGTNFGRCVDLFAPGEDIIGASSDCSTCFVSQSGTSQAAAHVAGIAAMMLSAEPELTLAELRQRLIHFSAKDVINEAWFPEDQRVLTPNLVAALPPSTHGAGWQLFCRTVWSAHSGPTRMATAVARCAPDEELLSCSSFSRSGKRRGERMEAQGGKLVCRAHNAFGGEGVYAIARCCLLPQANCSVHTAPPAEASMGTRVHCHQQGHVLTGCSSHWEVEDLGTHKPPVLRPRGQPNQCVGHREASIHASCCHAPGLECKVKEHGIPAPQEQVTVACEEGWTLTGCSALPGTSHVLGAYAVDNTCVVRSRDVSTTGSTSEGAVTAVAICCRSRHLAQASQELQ

| Binder | IC50 (His-tagged PCSK9Δhelix) [µM] | IC50 [1] [µM] |
| --- | --- | --- |
| Ac-CRLPWALQRIGLPC-NH2 (disulfide 1-14; SMILES CC[C@H](C)[C@@H]1NC(=O)[C@H](CCCNC(=N)N)NC(=O)[C@H](CCC(N)=O)NC(=O)[C@H](CC(C)C)NC(=O)[C@H](C)NC(=O)[C@H](Cc2c[nH]c3ccccc23)NC(=O)[C@@H]2CCCN2C(=O)[C@H](CC(C)C)NC(=O)[C@H](CCCNC(=N)N)NC(=O)[C@@H](NC(C)=O)CSSC[C@@H](C(N)=O)NC(=O)[C@@H]2CCCN2C(=O)[C@H](CC(C)C)NC(=O)CNC1=O) [Compound 75 (Ac-CRLPWALQRIGLPC-NH2)] | 49.5 | > 50 |
| Ac-CRAPWNLQRIGLPC-NH2 (disulfide 1-14; SMILES CC[C@H](C)[C@@H]1NC(=O)[C@H](CCCNC(=N)N)NC(=O)[C@H](CCC(N)=O)NC(=O)[C@H](CC(C)C)NC(=O)[C@H](CC(N)=O)NC(=O)[C@H](Cc2c[nH]c3ccccc23)NC(=O)[C@@H]2CCCN2C(=O)[C@H](C)NC(=O)[C@H](CCCNC(=N)N)NC(=O)[C@@H](NC(C)=O)CSSC[C@@H](C(N)=O)NC(=O)[C@@H]2CCCN2C(=O)[C@H](CC(C)C)NC(=O)CNC1=O) [Compound 78 (Ac-CRAPWNLQRIGLPC-NH2)] | 5.56 | > 50 |
| Ac-CRLPWNLARIGLPC-NH2 (disulfide 1-14; SMILES CC[C@H](C)[C@@H]1NC(=O)[C@H](CCCNC(=N)N)NC(=O)[C@H](C)NC(=O)[C@H](CC(C)C)NC(=O)[C@H](CC(N)=O)NC(=O)[C@H](Cc2c[nH]c3ccccc23)NC(=O)[C@@H]2CCCN2C(=O)[C@H](CC(C)C)NC(=O)[C@H](CCCNC(=N)N)NC(=O)[C@@H](NC(C)=O)CSSC[C@@H](C(N)=O)NC(=O)[C@@H]2CCCN2C(=O)[C@H](CC(C)C)NC(=O)CNC1=O) [Compound 73 (Ac-CRLPWNLARIGLPC-NH2)] | 0.915 | > 50 |
| Ac-CRLPWNLQRAGLPC-NH2 (disulfide 1-14; SMILES CC(=O)N[C@H]1CSSC[C@@H](C(N)=O)NC(=O)[C@@H]2CCCN2C(=O)[C@H](CC(C)C)NC(=O)CNC(=O)[C@H](C)NC(=O)[C@H](CCCNC(=N)N)NC(=O)[C@H](CCC(N)=O)NC(=O)[C@H](CC(C)C)NC(=O)[C@H](CC(N)=O)NC(=O)[C@H](Cc2c[nH]c3ccccc23)NC(=O)[C@@H]2CCCN2C(=O)[C@H](CC(C)C)NC(=O)[C@H](CCCNC(=N)N)NC1=O) [Compound 71 (Ac-CRLPWNLQRAGLPC-NH2)] | 49.5 | > 50 |
| Ac-CRLPANLQRIGLPC-NH2 (disulfide 1-14; SMILES CC[C@H](C)[C@@H]1NC(=O)[C@H](CCCNC(=N)N)NC(=O)[C@H](CCC(N)=O)NC(=O)[C@H](CC(C)C)NC(=O)[C@H](CC(N)=O)NC(=O)[C@H](C)NC(=O)[C@@H]2CCCN2C(=O)[C@H](CC(C)C)NC(=O)[C@H](CCCNC(=N)N)NC(=O)[C@@H](NC(C)=O)CSSC[C@@H](C(N)=O)NC(=O)[C@@H]2CCCN2C(=O)[C@H](CC(C)C)NC(=O)CNC1=O) [Compound 76 (Ac-CRLPANLQRIGLPC-NH2)] | 49.5 | > 50 |

The remaining binders from weak to strong by IC50 (His-tagged PCSK9Δhelix), led by results:

| IC50 (His-tagged PCSK9Δhelix) [µM] | IC50 [1] [µM] | Binder |
| --- | --- | --- |
| 49.5 | > 50 | Ac-CRLPWNAQRIGLPC-NH2 (disulfide 1-14; SMILES CC[C@H](C)[C@@H]1NC(=O)[C@H](CCCNC(=N)N)NC(=O)[C@H](CCC(N)=O)NC(=O)[C@H](C)NC(=O)[C@H](CC(N)=O)NC(=O)[C@H](Cc2c[nH]c3ccccc23)NC(=O)[C@@H]2CCCN2C(=O)[C@H](CC(C)C)NC(=O)[C@H](CCCNC(=N)N)NC(=O)[C@@H](NC(C)=O)CSSC[C@@H](C(N)=O)NC(=O)[C@@H]2CCCN2C(=O)[C@H](CC(C)C)NC(=O)CNC1=O) [Compound 74 (Ac-CRLPWNAQRIGLPC-NH2)] |
| 39.6 | > 50 | Ac-CRLPWNLQAIGLPC-NH2 (disulfide 1-14; SMILES CC[C@H](C)[C@@H]1NC(=O)[C@H](C)NC(=O)[C@H](CCC(N)=O)NC(=O)[C@H](CC(C)C)NC(=O)[C@H](CC(N)=O)NC(=O)[C@H](Cc2c[nH]c3ccccc23)NC(=O)[C@@H]2CCCN2C(=O)[C@H](CC(C)C)NC(=O)[C@H](CCCNC(=N)N)NC(=O)[C@@H](NC(C)=O)CSSC[C@@H](C(N)=O)NC(=O)[C@@H]2CCCN2C(=O)[C@H](CC(C)C)NC(=O)CNC1=O) [Compound 72 (Ac-CRLPWNLQAIGLPC-NH2)] |
| 7.26 | > 50 | Ac-CRLPWNLQRIALPC-NH2 (disulfide 1-14; SMILES CC[C@H](C)[C@@H]1NC(=O)[C@H](CCCNC(=N)N)NC(=O)[C@H](CCC(N)=O)NC(=O)[C@H](CC(C)C)NC(=O)[C@H](CC(N)=O)NC(=O)[C@H](Cc2c[nH]c3ccccc23)NC(=O)[C@@H]2CCCN2C(=O)[C@H](CC(C)C)NC(=O)[C@H](CCCNC(=N)N)NC(=O)[C@@H](NC(C)=O)CSSC[C@@H](C(N)=O)NC(=O)[C@@H]2CCCN2C(=O)[C@H](CC(C)C)NC(=O)[C@H](C)NC1=O) [Compound 70 (Ac-CRLPWNLQRIALPC-NH2)] |
| 6.64 | > 50 | Ac-CRLPWNLQRIGAPC-NH2 (disulfide 1-14; SMILES CC[C@H](C)[C@@H]1NC(=O)[C@H](CCCNC(=N)N)NC(=O)[C@H](CCC(N)=O)NC(=O)[C@H](CC(C)C)NC(=O)[C@H](CC(N)=O)NC(=O)[C@H](Cc2c[nH]c3ccccc23)NC(=O)[C@@H]2CCCN2C(=O)[C@H](CC(C)C)NC(=O)[C@H](CCCNC(=N)N)NC(=O)[C@@H](NC(C)=O)CSSC[C@@H](C(N)=O)NC(=O)[C@@H]2CCCN2C(=O)[C@H](C)NC(=O)CNC1=O) [Compound 69 (Ac-CRLPWNLQRIGAPC-NH2)] |
| 6.02 | > 50 | Ac-CRLAWNLQRIGLPC-NH2 (disulfide 1-14; SMILES CC[C@H](C)[C@@H]1NC(=O)[C@H](CCCNC(=N)N)NC(=O)[C@H](CCC(N)=O)NC(=O)[C@H](CC(C)C)NC(=O)[C@H](CC(N)=O)NC(=O)[C@H](Cc2c[nH]c3ccccc23)NC(=O)[C@H](C)NC(=O)[C@H](CC(C)C)NC(=O)[C@H](CCCNC(=N)N)NC(=O)[C@@H](NC(C)=O)CSSC[C@@H](C(N)=O)NC(=O)[C@@H]2CCCN2C(=O)[C@H](CC(C)C)NC(=O)CNC1=O) [Compound 77 (Ac-CRLAWNLQRIGLPC-NH2)] |
| 0.939 | > 50 | Ac-CRLPWNLQRIGLAC-NH2 (disulfide 1-14; SMILES CC[C@H](C)[C@@H]1NC(=O)[C@H](CCCNC(=N)N)NC(=O)[C@H](CCC(N)=O)NC(=O)[C@H](CC(C)C)NC(=O)[C@H](CC(N)=O)NC(=O)[C@H](Cc2c[nH]c3ccccc23)NC(=O)[C@@H]2CCCN2C(=O)[C@H](CC(C)C)NC(=O)[C@H](CCCNC(=N)N)NC(=O)[C@@H](NC(C)=O)CSSC[C@@H](C(N)=O)NC(=O)[C@H](C)NC(=O)[C@H](CC(C)C)NC(=O)CNC1=O) [Compound 68 (Ac-CRLPWNLQRIGLAC-NH2)] |
| 0.699 | > 50 | Ac-CRLPWNLKRIGLPC-NH2 (disulfide 1-14; SMILES CC[C@H](C)[C@@H]1NC(=O)[C@H](CCCNC(=N)N)NC(=O)[C@H](CCCCN)NC(=O)[C@H](CC(C)C)NC(=O)[C@H](CC(N)=O)NC(=O)[C@H](Cc2c[nH]c3ccccc23)NC(=O)[C@@H]2CCCN2C(=O)[C@H](CC(C)C)NC(=O)[C@H](CCCNC(=N)N)NC(=O)[C@@H](NC(C)=O)CSSC[C@@H](C(N)=O)NC(=O)[C@@H]2CCCN2C(=O)[C@H](CC(C)C)NC(=O)CNC1=O) [Compound 67 (Ac-CRLPWNLKRIGLPC-NH2)] |
